From US20240279618A1, “RECEPTOR TYROSINE KINASE AGONIST, COMPOSITION FOR CELL CULTURE MEDIUM, AND […] MAINTENANCE COMPOSITION” (SEKISUI CHEMICAL CO., LTD., priority 2021, published 2024)

Tests used:
[1] = tested on: mouse fibroblast cell line NIH/3T3; assay: Inhibition of growth factor activity of VHH homodimer by FGFR inhibitor (fibroblasts); format: cell-based; settings: 10 and 100 ng/ml test substance plus FGFR kinase inhibitor
Source text: Promotion of Fibroblast Growth by VHH (Homodimer)” described above.
It was examined whether the cell growth activities of bFGF and the single-domain antibody were inhibited by NPV-BGJ398 which is an FGFR kinase inhibitor.

[2] = tested on: human bone marrow-derived MSC; assay: MSC: evaluation of fat differentiation induction (Oil Red O); format: cell-based; settings: MSC after 3-passage subculture with 20 ng/ml additive, 14 days induction
Description: A third passage was performed in a CellBIND(R) 24-well transparent multi-well plate (Corning, C/N: 3337), and then at a time of reaching 80% to 90% confluence, medium exchange was performed in MesenCult Stem Cell Adipogenic Differentiation Medium (PromoCell, C/N: C-28016) which is a medium for differentiation induction. Furthermore, for the cells as a negative control, D-MEM (10% FBS or 20% FBS) was used for the medium exchange. The medium exchange was carried out every 2 to 4 days.
After 14 days from seeding, a 4% paraformaldehyde/phosphate buffer solution was added thereto at 500 μL/well, and the cells were left to stand for 2 hours or longer. After the immobilization, purified water was added thereto at 500 μL/well. An Oil Red stock liquid (Cosmo Bio Co., Ltd., C/N: AK09F) and purified water were mixed at a ratio of 6:4, and the mixture was left to stand at room temperature for 10 to 15 minutes. Thereafter, the filtrate was filtered through a membrane filter having a pore size of 0.5 to 1.0 μm, and the filtrate was used as an Oil Red O liquid. 500 μL of the Oil Red O liquid was added to each well and the mixture was left to stand at room temperature for 15 minutes. […] 100 μL of the eluate was transferred to a 96-well plate and the absorbance at 520 nm was measured. […]

[3] = tested on: phospho-p44/42 MAPK (Erk½); assay: Agonist activity by In Cell ELISA in NIH3T3 cells; format: cell-based, mouse; settings: 30 minutes stimulation, final dilution ratio 100-fold, relative to no stimulus = 1
Source text: In order to verify the agonist activity of the purified VHH (monomer), the expression level of phospho-p44/42 MAPK (Erk½) was […] by using an In Cell ELISA method. VHH (monomer) was allowed to act on the cells such that the final dilution ratio was 100-fold. In addition, as a positive control, FGF2 (fibroblast growth factor (basic) (FGF-basic/bFGF/FGF2), human, recombinant, animal-derived substance-free (154aa): product code 068-05384; manufactured by Fujifilm Wako Pure Chemical Corporation: final concentration: 100 ng/mL) was used. The experimental procedure was as described below.
A D-MEM (D6429, manufactured by Sigma-Aldrich Co., LLC) medium including a 10% fetal bovine serum (S0400, manufactured by BWT) and 1% Penicillin-Streptomycin Mixed Solution, 26253-84, manufactured by Nacalai Tesque, Inc.) was prepared, NIH3T3 (CRL1658, ATCC) was suspended therein, and the suspension was seeded on a 96-well plate for cell culture at 1× 10^4 cells/well and cultured overnight at 37° C. with light shielded in a 5% CO2 incubator. The medium in each well was removed and the inside of each well was washed with a serum-free medium. […]

Molecule	cell growth with addition of NPV-BGJ398 [1]	differentiation into the fat cell line (Oil Red O) [2]	agonist activity (expression level of phospho-p44/42 MAPK (Erk½)) [3]
FGF2: fibroblast growth factor (basic), human, recombinant (154aa), positive control; SEQ ID NO: 58 [reference compound]	suppressed cell growth	Differentiation was similarly recognized	–
VHH Clone #1: alpaca-derived VHH single-domain antibody (monomer) binding FGFR1, amino acid sequence SEQ ID NO: 17 (protein, VHH_Clone_#1) VHH: QLQLVESGGGSVQAGGSLRLSCAASRSLSRFNVWTWYRQAPVKQRELVASITKSGDTNYAESVKGRFIISRDDDKNTVYLQMNNLKSEDTGIYYCAGSYYSGSYLYPSPGGFSVWGQGTQVTVSS	–	–	none of the VHHs (monomers) have an agonist activity
VHH Clone #2: alpaca-derived VHH single-domain antibody (monomer) binding FGFR1, amino acid sequence SEQ ID NO: 18 (protein, VHH_Clone_#2) VHH: QVQLVESGGGLVQAGGSLRLSCAVPGSIFRFNTMGWYRQPPGKQRELVAQMSRGGITKYGDSVKGRFTITRDNAKNTVHLQMNSLKPEDTAVYYCAGSYYSGSYYYPSPQGFSVWGQGTQVTVSP	–	–	none of the VHHs (monomers) have an agonist activity
#1-L4-#1: dimer of VHH #1 with linker L4 (GSEGKSSGSGSESKST), SEQ ID NO: 23 (protein, #1-L4-#1) VHH: QLQLVESGGGSVQAGGSLRLSCAASRSLSRFNVWTWYRQAPVKQRELVASITKSGDTNYAESVKGRFIISRDDDKNTVYLQMNNLKSEDTGIYYCAGSYYSGSYLYPSPGGFSVWGQGTQVTVSSGSEGKSSGSGSESKSTQLQLVESGGGSVQAGGSLRLSCAASRSLSRFNVWTWYRQAPVKQRELVASITKSGDTNYAESVKGRFIISRDDDKNTVYLQMNNLKSEDTGIYYCAGSYYSGSYLYPSPGGFSVWGQGTQVTVSS	suppressed cell growth	Differentiation was similarly recognized	–
